The text below walks through data of patent publication US20110171235A1 (University of California, published 2011).

Where two headings read alike, the source gives them in different places.

In assay [1] the target is T1, botulinum neurotoxin type A (BoNT/A), purified holotoxin (Clostridium botulinum, UniProt P0DPI0 2-1296).
Assay [2] concerns the target T1, botulinum neurotoxin type A (BoNT/A), …. As to the kind of experiment: yeast displayed scFv, flow cytometry. (In general: Flow cytometry measures light scatter and fluorescence of single cells or particles in a stream.)
For assay [3] the target is unchanged. Put plainly: yeast display.
Assay [4] shares this target. As to the kind of experiment: Kinexa.
The target is the same in assay [5]. As to the kind of experiment: cell-based or functional assay.
Assay [6] shares this target. This is another data set of the same source.
Assay [7] has the same target. This is another data set of the same source.

B1: AR4 scFv (scFv, V domains shown)
VH: QVQLQESGGGLVQPGGSLRLSCAASGFTFEEHYMYWVRQAPGKGLEWVATISDGGSYTYYPDSVEGRFTTSRDNSKNTLYLQMNSLRAEDTAIYYCSRYRYDDAMDYWGQGTLVTVSS
VL: EIVLTQSPATLSLSPGERATISCRASESVDSYGHSFMQWYQQKPGQAPRLLIYRASNLEPGIPARFSGSGSGTDFTLTISSLEPEDFAVYYCQQGNEVPFTFGQGTKVEIK
In general, Kd refers to the concentration at which binding is half-saturated. Read a low Kd as a tighter complex. As for B1, the Kd in assay [1] worked out at 0.0226 nM; in assay [2], 0.023 nM. Further, in assay [3], the “fold higher affinity than HuC25 scFv” value was determined as 37 fold.

B2: AR4 IgG (antibody, V domains shown)
VH: QVQLQESGGGLVQPGGSLRLSCAASGFTFEEHYMYWVRQAPGKGLEWVATISDGGSYTYYPDSVEGRFTTSRDNSKNTLYLQMNSLRAEDTAIYYCSRYRYDDAMDYWGQGTLVTVSS
VL: EIVLTQSPATLSLSPGERATISCRASESVDSYGHSFMQWYQQKPGQAPRLLIYRASNLEPGIPARFSGSGSGTDFTLTISSLEPEDFAVYYCQQGNEVPFTFGQGTKVEIKR
For the molecule B2, the “fold higher affinity than HuC25 IgG” value in assay [4] was 34 fold.

B3: AR3 scFv (scFv, V domains shown)
VH: QVQLQESGGGLVQPGGSLRLSCAASGFTFGEHYMYWVRQAPGKGLEWVATISDGGSYTYYPDSVEGRFTTSRDNSKNTLYLQMNSLRAEDTAIYYCSRYRYDDAMDYWGQGTLVTVSS
VL: EIVLTQSPATLSLSPGERATISCRASESVDSYGHSFMQWYQQKPGQAPRLLIYRASNLEPGIPARFSGSGSGTDFTLTISSLEPEDFAVYYCQQGNEVPFTFGQGTKVEIK
The molecule B3 returned a Kd in assay [2] of 0.019 nM.

B4: AR1 scFv (scFv, V domains shown)
VH: QVQLQESGGGLVQPGGSLRLSCAASGFTFSDYYMYWVRQAPGKGLEWVATISDGGSYTYYPDSVKGRFTISRDNSKNTLYLQMNSLRAEDTAIYYCSRYRYDDAMDYWGQGTLVTVSS
VL: EIVLTQSPATLSLSPGERATISCRASESVDSYGHSFMQWYQQKPGQAPRLLIYRASNLEPGIPARFSGSGSGTDFTLTISSLEPEDFAVYYCQQGNEVPFTFGQGTKVEIK
In the case of B4, in assay [2], the affinity, expressed as Kd, was 0.169 nM and the “fold improvement of KD against HuC25” value was found to be 5 fold.

B5: HuC25 scFv (scFv, V domains shown)
VH: QVQLQESGGGLVQPGGSLRLSCAASGFTFSDYYMYWVRQAPGKGLEWVATISDGGSYTYYPDSVKGRFTISRDNSKNTLYLQMNSLRAEDTAMYYCSRYRYDDAMDYWGQGTLVTVSS
VL: EIVLTQSPATLSLSPGERATISCRASESVDSYGHSFMQWYQQKPGQAPRLLIYRASNLEPGIPARFSGSGSGTDFTLTISSLEPEDFAVYYCQQSNEDPFTFGQGTKVEIK
In assay [2], B5 gave a Kd of 0.844 nM.

B6: AR2 scFv (scFv, V domains shown)
VH: QVQLQESGGGLVQPGGSLRLSCAASGFTFSDHYMYWVRQAPGKGLEWVATISDGGSYTYYPDSVKGRFTTSRDNSKNTLYLQMNSLRAEDTAIYYCSRYRYDDAMDYWGQGTLVTVSS
VL: EIVLTQSPATLSLSPGERATISCRASESVDSYGHSFMQWYQQKPGQAPRLLIYRASNLEPGIPARFSGSGSGTDFTLTISSLEPEDFAVYYCQQGNEVPFTFGQGTKVEIK
On to B6, for which, in assay [2], the Kd turned out to be 0.0614 nM and the “fold increase against parental AR1” value is 2.8 fold.

B7: C25 scFv (scFv)
scFv: QVQLQESGGGLVKPGGSLKLSCAASGFTFSDYYMYWVRQTPEKRLEWVATISDGGSYTYYPDSVKGRFTISRDNAKNNLYLQMSSLKSEDTAMYYCSRYRYDDAMDYWGQGTTVTVSSGGGGSGGGGSGGGGSDIELTQSPASLAVSLGQRATISCRASESVDSYGHSFMQWYQQKPGQPPKLLIYRASNLEPGIPARFSGSGSGTDFTLTINPVEADDVATYYCQQSNEDPFTFGSGTKLEIKR
For the molecule B7, the “prolongation of time to neuroparalysis” value in assay [5] was determined as 2.7 fold.

B8: 3D12 scFv (scFv, V domains shown)
VH: QVQLVQSGGGVVHPGRSLKLSCAGSGFTFSDYDMHWVRQAPGKGLEWVAVMWFDGTEKYSAESVKGRFTISRDNSKNTLFLQMNSLRADDTAVYYCAREPDWLLWGDRGALDVWGQGTTVTVSS
VL: DIVMTQSPSTLSASVGDRVTITCRASQSISSWLAWYQQKPGKAPKLLMYEASSLESGVPSRFSGSGSGTEFTLTISSLQPDDFAAYYCQHYNTYPYTFGQGTKLEIK
In assay [6], B8 displayed a Kd of 0.943 nM. For the same molecule, the “prolongation of time to neuroparalysis” value in assay [5] was 1.5 fold.

B9: RAZ1 IgG (antibody, V domains shown)
VH: QVQLVQSGGGVVHPGRSLKLSCAGSGFTFSDYDMHWVRQAPGKGLEWVAVMWFDGTEKYSAESVKGRFTISRDNSKNTLFLQMNSLRADDTAVYYCAREPDWLLWGDRGALDVWGQGTTVTVSS
VL: DIVMTQSPSTLSASVGDRVTITCWASQSISSRLAWYQQKPGKAPKLLMYEATSLGSGVPSRFSGSGSGTEFTLTISSLQPDDFAAYYCQHYDTYPYTFGQGTKLEIKR
Consider B9, for which the “fold higher affinity than 3D12 IgG” value in assay [7] was determined as 35 fold.
